Laboratory results published in the Immune Epitope Database (IEDB).

What was measured:
HLA-A*30:02 = test: IEDB peptide-MHC binding, purified MHC/competitive/radioactivity; filed as Kd, often an IC50 or EC50 that approximates it; ≥ and ≤ were set here for values at or beyond the usual limits of such assays
HLA-B*35:01 = test: as above
HLA-B*53:01 = test: as above
HLA-A*02:02 = test: as above
HLA-A*02:03 = test: as above
HLA-A*02:06 = test: as above
HLA-B*51:01 = test: as above
HLA-A*02:01 [1] = test: IEDB peptide-MHC binding, purified MHC/competitive/fluorescence; ≥ and ≤ were set here for values at or beyond the usual limits of such assays
HLA-A*24:02 = test: as above
HLA-A*03:01 = test: IEDB peptide-MHC binding, purified MHC/direct/fluorescence; filed as Kd, often an IC50 or EC50 that approximates it; ≥ and ≤ were set here for values at or beyond the usual limits of such assays; settings: source organism: Vibrio cholerae
HLA-A*02:01 [2] = test: IEDB peptide-MHC binding, purified MHC/competitive/fluorescence; filed as Kd, often an IC50 or EC50 that approximates it; ≥ and ≤ were set here for values at or beyond the usual limits of such assays; settings: source organism: Bacillus anthracis str. A0488
HLA-A*26:01 = test: as above; settings: source organism: Yersinia pestis Nepal516
[3] = source organism: Dengue virus 2 Jamaica/1409/1983
[4] = source organism: Vaccinia virus WR
[5] = source organism: SARS coronavirus Tor2
[6] = source organism: Dengue virus 3 Martinique/1243/1999
[7] = source organism: Dengue virus 1 Singapore/S275/1990
[8] = source organism: Dengue virus 4 Philippines/H241/1956
[9] = source organism: Sudan ebolavirus
[10] = source organism: Zaire ebolavirus

Sequence | Kd (HLA-A*02:02; [4]) | Kd (HLA-A*02:03; [4]) | Kd (HLA-A*02:06; [4]) | also measured
FAGPVSQHNY | – | – | – | Kd (HLA-A*30:02; [3]): 11.6 nM; Kd (HLA-B*35:01; [3]): 38.4 nM; Kd (HLA-B*53:01; [3]): 435 nM
DIMTSTRTI | 3450 nM | 78.6 nM | ≥ 21800 nM | –
LTGNNTITT | 5750 nM | 5620 nM | 8680 nM | –
NLAPHLLLIV | – | – | – | Kd (HLA-A*02:02; [5]): 5.1 nM; Kd (HLA-A*02:03; [5]): 1.07 nM; Kd (HLA-A*02:06; [5]): 125 nM
VPPLPLFIF | – | – | – | Kd (HLA-B*51:01; [6]): 3580 nM
AWNVWEVEDY | – | – | – | Kd (HLA-A*30:02; [6]): ≥ 69700 nM
CPDDQRAWNI | – | – | – | Kd (HLA-B*51:01; [7]): 18000 nM; Kd (HLA-B*53:01; [7]): 120 nM
DQNYVCKHTY | – | – | – | Kd (HLA-A*30:02; [6]): 8020 nM
LPIRYQTPAI | – | – | – | Kd (HLA-B*35:01; [3]): 51.9 nM; Kd (HLA-B*51:01; [3]): 69.1 nM; Kd (HLA-B*53:01; [3]): 13.5 nM
VIVENDNVI | 15500 nM | 19500 nM | 7230 nM | –
ALIARCWYL | – | – | – | Kd (HLA-A*02:02; [5]): 0.196 nM; Kd (HLA-A*02:03; [5]): 17.1 nM; Kd (HLA-A*02:06; [5]): 0.982 nM
RTWKVLSIMA | ≥ 24000 nM | 6050 nM | 5750 nM | –
VAVSFVTLI | – | – | – | Kd (HLA-B*51:01; [3]): 431 nM
GLRQQLEDI | 43 nM | 4.72 nM | 4310 nM | –
SIMSMMNIT | 4970 nM | 681 nM | 1760 nM | –
SIGKMLESTY | – | – | – | Kd (HLA-A*30:02; [8]): 1560 nM
KLASAIQKA | – | – | – | Kd (HLA-A*02:03; [3]): 17.9 nM
WIPYFGPGA | – | – | – | IC50 (HLA-A*02:01 [1]; [9]): 1460 nM
NTIAVITETI | 50.2 nM | 56.3 nM | 784 nM | –
DTCGASINIT | ≥ 23600 nM | ≥ 70400 nM | ≥ 69800 nM | –
YIEDELRRAA | 628 nM | 166 nM | 204 nM | –
YALEPRKEI | 3700 nM | 7070 nM | 4110 nM | –
HYWTAQEQH | – | – | – | IC50 (HLA-A*24:02; [9]): 51100 nM
GMQFDKVYL | 13.4 nM | 277 nM | 1910 nM | –
LMIGNYFSGV | 0.126 nM | 0.0932 nM | 0.132 nM | –
NPTVDGITV | – | – | – | Kd (HLA-B*51:01; [3]): 6300 nM
ALTDVEKRI | 74.2 nM | 1490 nM | 14400 nM | –

Sequence | Kd (HLA-A*02:02; [4]) | Kd (HLA-A*02:03; [4]) | Kd (HLA-A*02:06; [4]) | also measured
FTILEYLYI | 1560 nM | 169 nM | 267 nM | –
LSARHASGK | – | – | – | Kd (HLA-A*03:01): 127 nM
FMSMVSHEL | – | – | – | Kd (HLA-A*02:01 [2]): 0.5 nM
FPVSIPITA | – | – | – | Kd (HLA-B*35:01; [3]): 1.7 nM; Kd (HLA-B*51:01; [3]): 3720 nM
STAEQLSKYV | 1060 nM | 1870 nM | 697 nM | –
TPKGAVMDI | – | – | – | Kd (HLA-B*51:01; [8]): 4220 nM
FVTDYVHEGV | 23.8 nM | 1.68 nM | 10.6 nM | –
TTRGETLFY | – | – | – | Kd (HLA-A*26:01): 34.1 nM
NNLEEICQL | – | – | – | IC50 (HLA-A*02:01 [1]; [10]): ≥ 225000 nM
FVVFLLVTL | – | – | – | Kd (HLA-A*02:02; [5]): 217 nM; Kd (HLA-A*02:03; [5]): 1640 nM; Kd (HLA-A*02:06; [5]): 37.7 nM
MPTVIEELEK | – | – | – | Kd (HLA-B*35:01; [8]): 2620 nM; Kd (HLA-B*53:01; [8]): 5380 nM
STDQDTMLFA | 646 nM | 4700 nM | 2020 nM | –
KLAGGVAVI | – | – | – | IC50 (HLA-A*02:01 [1]; source organism: Mycobacterium tuberculosis): 120 nM
NETEYLFEV | – | – | – | IC50 (HLA-A*02:01 [1]; [10]): 43600 nM
TVLTSVDIET | 1720 nM | 915 nM | 961 nM | –
SYNDYFNVL | – | – | – | IC50 (HLA-A*24:02; source organism: Vaccinia virus): 98.3 nM
SVNASKTINA | 17300 nM | 731 nM | ≥ 28800 nM | –
NYTENTSSY | – | – | – | IC50 (HLA-A*24:02; [9]): 6230 nM
TAGNKVDVDI | 11000 nM | 3500 nM | ≥ 38000 nM | –
FTNSQIFNI | 6.89 nM | 7.11 nM | 4.79 nM | –
AVITETIPI | 324 nM | 43.1 nM | 6.46 nM | –
DTCLLAISAV | 2460 nM | 93.1 nM | 106 nM | –
LLLEWLAEV | – | – | – | Kd (HLA-A*02:02; [5]): 0.114 nM; Kd (HLA-A*02:03; [5]): 0.627 nM; Kd (HLA-A*02:06; [5]): 0.105 nM
LTSVDIETAI | 509 nM | 2150 nM | 3130 nM | –
LMSFTILCL | – | – | – | Kd (HLA-A*02:02; [5]): 0.269 nM; Kd (HLA-A*02:03; [5]): 16.3 nM; Kd (HLA-A*02:06; [5]): 1.84 nM
IAGLKIEEI | 7660 nM | 6090 nM | 1970 nM | –
LPLPWLPGAD | – | – | – | Kd (HLA-B*35:01; [3]): 2490 nM; Kd (HLA-B*51:01; [3]): ≥ 32600 nM
